These results are taken from US10822379 (UNIVERSITY OF PITTSBURGH OF THE COMMONWEALTH SYSTEM OF …, dated 2020).

B1: Clone #2 (ab2) (Fab, V domains shown)
VH: QVQLQQSGPGLVKPSQTLSLTCAISGDSVSSNSAAWNWIRQSPSRGLEWLGRTYYRSKWYNDYAVSVKSRITINPDTSKNQFSLQLNSVTPEDTAVYYCAREQQQLVPHYYYYGMDVWGQGTTVTVSS
VL: DVVMTQSPSVSGSPGQSVTISCTGTTSDVGGYNYVSWYQQRPGKAPKLMIYEVSKRPSGVPDRFSGSKSGNTASLTVSGLQAEDEADYYCSSYTSSSTLFGTGTKLTVLG
notes: also called #2 (Fab)
B2: Clone #1 (ab1) (Fab, V domains shown)
VH: EVQLVESGGGLVQPGGSLRLSCAASGFTVSSNYMSWVRQAPGKGLEWVSVIYSGGSTYYADSVKGRFTISRHNSKNTLYLQMNSLRAEDTAVYYCARGYGDYYFDYWGQGTLVTVSS
VL: DVVMTQSPATLSLSPGEKATLSCRASQSVSSYLAWYQQKPGQPPKLLIYWASTRESGVPDRFSGSGSGTDFTLTISSLQAEDVAVYYCQQYGSSPLTFGGGTKVEIKR
notes: also called #1 (Fab)
B3: Clone #5 (ab5) (other)
VH: KVQLQQWGAGLLKPSETLSLTCAVYGGSFSGYYWSWIRQPPGKGLEWIGEINHSGSTNYNPSLKSRVTISVDTSKNQFSLKLSSVTAADTAVYYCVRLPMIKKSFDIWGPGTLVTVSS
notes: also called #5 (VH domain)
B4: Clone #9 (ab9) (other)
VH: EVQLVESGGGLVQPGGSLRLSCKGSGFTLSDYYIGWVRQAPGKGLEWIGSMYHSGRTYINPSLKSRVTISRDNSKNTLYLQMNSLRAEDTAVYYCARGGITGTTPIDYWGQGTLVTVSS
notes: also called #9 (VH domain)
B5: Clone #6 (ab6) (other)
VH: EVQLVESGGGVVQPGRSLRLSCAASGFTFSSYAMHWVRQAPGKGLEWIGNIYHDGSTFYNPSLKSLVTISRDDSTNTLYLQMNSLRAEDTAIYYCARVWLYGSGYMDVWGKGTLVTVSS
notes: also called #6 (VH domain)
B6: Clone #8 (ab8) (other)
VH: EVQLVESGGGLVQPGGSLRLSCAASGFTFDDYAMSWVRQAPGKGLEWIGRMYNNGRTSYNPSLKSLVTISRDNSKNTLYLQMNSLRAEDTATYYCARDNLGYRPSENLYGMDVWGQGTTVTVSS
notes: also called #8 (VH domain)
B7: Clone #4 (ab4) (scFv)
scFv: EVQLVQSGGGLVQPGGSLRLSCAASGFTFSNYAMTWVRQAPGKGLEWVSTIAGSGDNTYYADSVKGRFTISRDNDKNTLYLQMNSLRADDTAVYYCARDRYYTMDVWGQGTLVTVSSGGGGSGGSGSSGGGSQSVVTQPPSASGSPGQSVTISCTGTSSDVGGYNHVSWYQQHPGKAPKLLIYEVSERPSGVPDRFSGSKSDNKASLTIIGLQTEDEADYYCQSYDSSLSGSLFGTGTKLTVLR
notes: also called #4 (scFv)
B8: Clone #7 (ab7) (other)
VH: EVQLVESGGGLVQPGGSLRLSCAASAFDFYDYEMSWVRQAPGKALEWIGEIHHSGSTYYNPSLKGRFTISRDNSKNTLYLQMNSLRAEDTAVYYCAKDVSYHADVWGQGTTVTVSS
notes: also called #7 (VH domain)

This assay concerns the target RBD of the S protein of SARS-CoV-2 (SARS-CoV-2, UniProt P0DTC2 330-532). The assay is described as follows: ELISA on SARS-CoV-2 RBD.
In the case of B1, the EC50 (usually the concentration giving half of the maximal effect) was 2 nM.
Regarding B2, the 50% effective concentration (EC50) is 20 nM.
Turning to B3, the response was half-maximal at 20 nM (EC50).
Consider B4, for which the EC50 amounted to 60 nM.
Molecule B5 displayed a half-maximal effective concentration (EC50) of 6 nM.
Take B6: a half-maximal effect (EC50) was put at 25 nM.
Take B7: the concentration for a half-maximal effect (EC50) came to 10 nM.
As for B8, the concentration giving a half-maximal response (EC50) was 4 nM.
